Substrate in this data set: O=[N+]([O-])c1ccc(O[C@@H]2O[C@H](CO)[C@H](O)[C@H](O)[C@H]2O)cc1
The data set can be described thus: purified protein. It is filed as biochemical, Kluyveromyces lactis. Conditions: Z buffer (100 mM Na2HPO4, 40 mM NaH2PO4, 10 mM KCl, 1.6 mM MgSO4), 30 °C, 0.3 μg/mL enzyme, substrate 0-20 mM.

B1: Kl-β-Gal (Kluyveromyces lactis β-galactosidase) (Kluyveromyces lactis NRRL Y-1140) (protein)
chain: SCLIPENLRNPKKVHENRLPTRAYYYDQDIFESLNGPWAFALFDAPLDAPDAKNLDWETAKKWSTISVPSHWELQEDWKYGKPIYTNVQYPIPIDIPNPPTVNPTGVYARTFELDSKSIESFEHRLRFEGVDNCYELYVNGQYVGFNKGSRNGAEFDIQKYVSEGENLVVVKVFKWSDSTYIEDQDQWWLSGIYRDVSLLKLPKKAHIEDVRVTTTFVDSQYQDAELSVKVDVQGSSYDHINFTLYEPEDGSKVYDASSLLNEENGNTTFSTKEFISFSTKKNEETAFKINVKAPEHWTAENPTLYKYQLDLIGSDGSVIQSIKHHVGFRQVELKDGNITVNGKDILFRGVNRHDHHPRFGRAVPLDFVVRDLILMKKFNINAVRNSHYPNHPKVYDLFDKLGFWVIDEADLETHGVQEPFNRHTNLEAEYPDTKNKLYDVNAHYLSDNPEYEVAYLDRASQLVLRDVNHPSIIIWSLGNEACYGRNHKAMYKLIKQLDPTRLVHYEGDLNALSADIFSFMYPTFEIMERWRKNHTDENGKFEKPLILCEYGHAMGNGPGSLKEYQELFYKEKFYQGGFIWEWANHGIEFEDVSTADGKLHKAYAYGGDFKEEVHDGVFIMDGLCNSEHNPTPGLVEYKKVIEPVHIKIAHGSVTITNKHDFITTDHLLFIDKDTGKTIDVPSLKPEESVTIPSDTTYVVAVLKDDAGVLKAGHEIAWGQAELPLKVPDFVTETAEKAAKINDGKRYVSVESSGLHFILDKLLGKIESLKVKGKEISSKFEGSSITFWRPPTNNDEPRDFKNWKKYNIDLMKQNIHGVSVEKGSNGSLAVVTVNSRISPVVFYYGFETVQKYTIFANKINLNTSMKLTGEYQPPDFPRVGYEFWLGDSYESFEWLGRGPGESYPDKKESQRFGLYDSKDVEEFVYDYPQENGNHTDTHFLNIKFEGAGKLSIFQKEKPFNFKISDEYGVDEAAHACDVKRYGRHYLRLDHAIHGVGSEACGPAVLDQYRLKAQDFNFEFDLAFE
notes: full length, N-terminal FLAG tag kept (YEpFLAG vector); monomer 118 kDa; active as dimer and tetramer
On to B1, for which the Km is 2.15 ± 0.52 mM and the Vmax was determined as 71.9 µmol/min/mg.

For orientation: Km means the concentration of substrate that gives half-maximal velocity. By Vmax is commonly meant the rate approached at saturating substrate.

For the origin of these results see article PMC5374532, “Rational mutagenesis by engineering disulphide bonds improves Kluyveromyces lactis beta-galactosidase for high-temperature industrial applications” (Scientific Reports, 2017).
